Publication doi:10.64898/2025.12.03.691989 (bioRxiv, 2025)

How the values were obtained:
[1] = molecular target: T1, human UBA6 (full-length, amino acid residues 1-1052) (human, UniProt A0AVT1 1-1052); assay: MST
T1 sequence (looked up): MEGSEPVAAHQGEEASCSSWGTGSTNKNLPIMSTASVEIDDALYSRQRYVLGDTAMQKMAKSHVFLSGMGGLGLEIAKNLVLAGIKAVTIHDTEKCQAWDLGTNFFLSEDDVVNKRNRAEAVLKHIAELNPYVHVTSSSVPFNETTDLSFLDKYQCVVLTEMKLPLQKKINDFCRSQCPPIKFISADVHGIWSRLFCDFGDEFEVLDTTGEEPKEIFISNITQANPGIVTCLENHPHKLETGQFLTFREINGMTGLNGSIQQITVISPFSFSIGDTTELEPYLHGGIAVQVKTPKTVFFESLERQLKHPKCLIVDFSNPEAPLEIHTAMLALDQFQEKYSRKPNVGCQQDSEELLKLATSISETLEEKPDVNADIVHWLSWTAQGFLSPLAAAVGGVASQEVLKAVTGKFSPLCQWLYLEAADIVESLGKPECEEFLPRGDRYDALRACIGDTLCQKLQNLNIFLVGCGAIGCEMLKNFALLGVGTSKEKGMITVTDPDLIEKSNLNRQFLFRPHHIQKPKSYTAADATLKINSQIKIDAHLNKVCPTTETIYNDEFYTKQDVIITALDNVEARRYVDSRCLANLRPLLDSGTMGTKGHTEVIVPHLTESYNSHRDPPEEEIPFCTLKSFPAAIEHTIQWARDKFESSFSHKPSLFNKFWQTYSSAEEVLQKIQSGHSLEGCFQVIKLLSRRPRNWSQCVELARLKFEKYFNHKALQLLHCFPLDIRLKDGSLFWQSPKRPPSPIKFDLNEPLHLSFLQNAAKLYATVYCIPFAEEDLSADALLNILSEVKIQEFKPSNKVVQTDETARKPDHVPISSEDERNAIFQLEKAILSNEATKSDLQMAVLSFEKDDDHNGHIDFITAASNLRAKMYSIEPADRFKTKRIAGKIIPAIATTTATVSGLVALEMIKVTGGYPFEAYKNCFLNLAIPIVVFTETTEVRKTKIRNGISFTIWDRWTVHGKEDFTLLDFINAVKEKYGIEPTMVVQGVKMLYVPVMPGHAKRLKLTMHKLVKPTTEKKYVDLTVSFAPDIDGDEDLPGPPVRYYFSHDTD

human UBA1 = molecular target: T2, human UBA1 (human, UniProt P22314 1-1058); assay: MST
T2 sequence (looked up): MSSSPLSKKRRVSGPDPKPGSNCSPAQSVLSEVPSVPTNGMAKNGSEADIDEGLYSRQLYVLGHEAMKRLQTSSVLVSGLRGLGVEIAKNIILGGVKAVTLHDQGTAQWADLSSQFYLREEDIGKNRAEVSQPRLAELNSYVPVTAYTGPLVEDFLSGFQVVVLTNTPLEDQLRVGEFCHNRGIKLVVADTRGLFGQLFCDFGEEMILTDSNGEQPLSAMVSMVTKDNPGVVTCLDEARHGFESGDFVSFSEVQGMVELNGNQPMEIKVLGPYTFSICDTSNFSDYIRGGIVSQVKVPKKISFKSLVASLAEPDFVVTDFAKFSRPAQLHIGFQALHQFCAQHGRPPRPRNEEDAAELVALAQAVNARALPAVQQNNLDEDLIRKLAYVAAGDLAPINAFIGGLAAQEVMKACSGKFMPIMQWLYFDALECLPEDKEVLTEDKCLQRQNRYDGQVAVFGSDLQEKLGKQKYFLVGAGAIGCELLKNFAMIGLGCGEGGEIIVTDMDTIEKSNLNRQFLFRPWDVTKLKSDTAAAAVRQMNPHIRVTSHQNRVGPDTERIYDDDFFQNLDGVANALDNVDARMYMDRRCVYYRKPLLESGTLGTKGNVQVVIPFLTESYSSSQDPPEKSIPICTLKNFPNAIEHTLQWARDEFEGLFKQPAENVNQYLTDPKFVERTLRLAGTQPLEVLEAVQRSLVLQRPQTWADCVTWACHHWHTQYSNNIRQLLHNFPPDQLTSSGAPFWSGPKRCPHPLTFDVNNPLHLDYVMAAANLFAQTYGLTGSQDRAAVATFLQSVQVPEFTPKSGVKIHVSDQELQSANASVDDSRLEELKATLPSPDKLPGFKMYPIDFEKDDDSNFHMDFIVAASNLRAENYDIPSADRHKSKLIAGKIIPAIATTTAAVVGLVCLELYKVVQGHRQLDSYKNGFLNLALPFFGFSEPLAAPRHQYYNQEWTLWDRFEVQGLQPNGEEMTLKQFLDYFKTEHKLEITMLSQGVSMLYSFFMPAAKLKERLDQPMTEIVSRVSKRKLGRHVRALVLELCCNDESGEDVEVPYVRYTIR

Kd [1]: 23 µM | Kd (human UBA1): 13 µM
B1: BIRC6 UBC domain (amino acid residues 4520-4857) (domain or fragment)
chain: not shown
